Laboratory results taken from article PMC9896810.

Key:
[1] = target: T1, Src-phosphorylated C3G (pC3G), wild type (human) (UniProt Q13905)
T1 sequence (chain, phosphotyrosines (phosphorylated in vitro by Src; sites not stated)): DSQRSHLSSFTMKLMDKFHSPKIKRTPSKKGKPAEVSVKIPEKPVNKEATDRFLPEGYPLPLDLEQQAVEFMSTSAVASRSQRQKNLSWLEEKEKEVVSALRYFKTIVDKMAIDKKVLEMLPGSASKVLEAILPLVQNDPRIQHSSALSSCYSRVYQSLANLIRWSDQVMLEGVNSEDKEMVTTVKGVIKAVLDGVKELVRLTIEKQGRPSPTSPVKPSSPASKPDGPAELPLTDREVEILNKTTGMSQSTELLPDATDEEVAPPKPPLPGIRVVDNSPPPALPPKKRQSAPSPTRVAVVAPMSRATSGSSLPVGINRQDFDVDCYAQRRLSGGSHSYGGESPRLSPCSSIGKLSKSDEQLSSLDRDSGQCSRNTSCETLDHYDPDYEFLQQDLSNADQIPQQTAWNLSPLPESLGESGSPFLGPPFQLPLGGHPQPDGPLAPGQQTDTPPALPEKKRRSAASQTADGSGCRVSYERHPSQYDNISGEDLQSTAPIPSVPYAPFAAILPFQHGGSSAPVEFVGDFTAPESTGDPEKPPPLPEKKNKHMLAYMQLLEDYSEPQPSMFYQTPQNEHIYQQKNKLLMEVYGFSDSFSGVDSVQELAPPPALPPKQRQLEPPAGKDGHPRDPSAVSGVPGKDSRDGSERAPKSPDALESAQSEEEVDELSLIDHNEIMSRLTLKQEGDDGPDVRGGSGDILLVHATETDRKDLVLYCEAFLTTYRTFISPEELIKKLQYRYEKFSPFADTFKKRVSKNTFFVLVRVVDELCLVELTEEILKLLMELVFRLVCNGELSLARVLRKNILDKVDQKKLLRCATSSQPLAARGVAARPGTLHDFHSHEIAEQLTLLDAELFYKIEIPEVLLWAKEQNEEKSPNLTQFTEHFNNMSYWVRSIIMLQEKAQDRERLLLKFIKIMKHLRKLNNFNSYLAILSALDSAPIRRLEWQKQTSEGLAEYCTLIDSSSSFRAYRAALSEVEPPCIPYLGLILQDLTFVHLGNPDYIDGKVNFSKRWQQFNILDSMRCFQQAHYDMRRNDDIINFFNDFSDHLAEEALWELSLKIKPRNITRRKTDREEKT

[2] = target: T2, C3G full-length wild type (human, isoform a, residues 4-1077) (human) (UniProt Q13905)
T2 sequence: T1 sequence (chain, phosphotyrosines (phosphorylated in vitro by Src; sites not stated))

[3] = target: C3G P1 P1 (Homo sapiens) (UniProt Q13905); details: cited from earlier work
[4] = target: the P1 (C3G-PAAA) and P2 (C3G-APAA) motifs; assay: ITC; single-PRM mutants of C3G in the cell titrated with full-length CrkL or CrkL-SH3N; 25 °C; 1:1 model in SEDPHAT; N is the competent fraction of C3G

Chain of CrkL, full-length (human) (P46109 whole entry): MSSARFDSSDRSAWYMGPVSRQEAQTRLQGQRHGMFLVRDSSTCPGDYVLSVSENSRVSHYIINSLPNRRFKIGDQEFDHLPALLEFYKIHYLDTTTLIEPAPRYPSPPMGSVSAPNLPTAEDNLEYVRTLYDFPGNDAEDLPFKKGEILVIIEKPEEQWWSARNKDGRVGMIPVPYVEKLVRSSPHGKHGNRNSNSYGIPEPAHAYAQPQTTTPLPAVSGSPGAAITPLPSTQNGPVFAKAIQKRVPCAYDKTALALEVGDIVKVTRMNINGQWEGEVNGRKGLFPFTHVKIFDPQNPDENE
Chain of CrkL (P46109 whole entry): as above

| AC50 of the dose-response activation of the GEF activity of pC3G (0.2 µM) on Rap1b:mant-dGDP [1] [µM] | kmax of the dose-response activation of the GEF activity of pC3G (0.2 µM) on Rap1b:mant-dGDP [1] [s^-1 µM^-1] | AC50 of the dose-response activation of the GEF activity of C3G (1 µM) on Rap1b:mant-dGDP [2] [µM] | kmax of the dose-response activation of the GEF activity of C3G (1 µM) on Rap1b:mant-dGDP [2] [M⁻¹ s⁻¹] | stoichiometry N [4] | Substance | Kd [3] [µM] |
| --- | --- | --- | --- | --- | --- | --- |
| 1.6 | 0.03 | 18.7 | 7900 | – | CrkII-L-II chimera (from UniProt P46108-1 1-133; P46109 125-182; P46108-1 191-304) | – |
| – | – | – | – | – | CrkL (from UniProt P46109) | 2.8 |
| – | – | – | – | 0.8 to 0.9 | CrkL, full-length (human) (from UniProt P46109 1-303) (natural protein) | – |
| 2.3 | 0.0336 | 16.7 | 7900 | – | CrkL-II-L chimera (from UniProt P46109 1-124; P46108-1 134-191; P46109 183-303) | – |
